From PMC5700991, “Cryo-EM structure of Saccharomyces cerevisiae target of rapamycin complex 2” (Nature Communications, 2017)

B1: Bit61-TAP (natural protein, S. cerevisiae, UniProt P47041 1-543, looked up)
chain: MTAEDILLRERTSTTTQRPVNSEQYLNVQLATAPVKNFQTTSEISRQTLVDTSNDDVYSIKNLKGSRNPISPSVSNVGFQSIFHTVDHPRSKVSVASNHSLRSNDNASAATSKSGSSQIGESHSVDTVECSNNLSKKLSSDAISITQKSLHSTPSGRYMKGKASGFFNRRNRAHTTISSDPASFLTDSSTLHNSSHSFRNVIKNFFQNKSHRHIGQDAIEPAIPNSLSKFLHSSYGRHKSPSQFIHTNAGQLVDSGTSVYSLNVNPSGVNPNTIVEDPLSGTDPASPNPVSMLHDLLRNLPSLEANYKHFNSQELTTLTNNIWNIFCSNVAELFRTQRIWKLRAKIENFNEVLEFYCILKTDPRVTHSGMNRIISDLKEFLVSSLYNLENQIVFNYSNEDTINNALKRLGVIWRIFYQEVYYDLAAVLLPLDQSIREDGNSTVLKSGNESRTHINGNYSIGFLLLMCFRDSIVLPCYENFVNSNDGISKSFQLYIFNQEEESNVTETDKLTLLQCFGILSTIQSNDRNQRIIEELLAGIRMSI
notes: Bit61 of S. cerevisiae (ortholog of Protor), subunit of TORC2; The chain was captured by the protein A part of the TAP tag and set free with TEV protease; also called TAP-tagged Bit61; source: S. cerevisiae Bit61-TAP expressing strain lacking Bit2, cell extract; captured on IgG-coated dynabeads, released with TEV protease

Key:
Test in all cases: cryo-EM structure; TORC2 purified from S. cerevisiae extract by protein-A affinity purification of Bit61-TAP (IgG-coated dynabeads; 50 mM HEPES pH 7.5, 0.2 mM CHAPS, 300 mM KCl, 0.5 mM DTT wash; TEV release); single-particle cryo-EM, C2 symmetry, 7.9 Å overall; homology models fitted
Tor2 (S. cerevisiae) = Tor2 (S. cerevisiae) (UniProt P32600)
Tor2 = molecular target: T1, Tor2 (S. cerevisiae, UniProt P32600 1-2474); settings: both partners purified
T1 construct: Tor2, Ser/Thr protein kinase of S. cerevisiae TORC2; HEAT repeats (spiral, bridge), FAT, FRB, kinase and FATC domains; Two copies stand in the TORC2 complex; The model in the map is a homology model built on the K. marxianus Tor-Lst8 structure; also called Sc Tor2; S. cerevisiae Tor2; source: endogenous, S. cerevisiae cell extract (Bit61-TAP strain lacking Bit2); purified as part of TORC2 on …

Avo3 = molecular target: T2, Avo3 (S. cerevisiae, UniProt P40061 1-1430); settings: both partners purified
T2 construct: Avo3 of S. cerevisiae (ortholog of Rictor); armadillo-like helical domain in its middle part; Only 17 individual helices are modelled; they are not tied to residue numbers in the text; source: endogenous, S. cerevisiae cell extract (Bit61-TAP strain lacking Bit2); purified as part of TORC2 on IgG-coated dynabeads, released with TEV protease
T2 sequence (looked up): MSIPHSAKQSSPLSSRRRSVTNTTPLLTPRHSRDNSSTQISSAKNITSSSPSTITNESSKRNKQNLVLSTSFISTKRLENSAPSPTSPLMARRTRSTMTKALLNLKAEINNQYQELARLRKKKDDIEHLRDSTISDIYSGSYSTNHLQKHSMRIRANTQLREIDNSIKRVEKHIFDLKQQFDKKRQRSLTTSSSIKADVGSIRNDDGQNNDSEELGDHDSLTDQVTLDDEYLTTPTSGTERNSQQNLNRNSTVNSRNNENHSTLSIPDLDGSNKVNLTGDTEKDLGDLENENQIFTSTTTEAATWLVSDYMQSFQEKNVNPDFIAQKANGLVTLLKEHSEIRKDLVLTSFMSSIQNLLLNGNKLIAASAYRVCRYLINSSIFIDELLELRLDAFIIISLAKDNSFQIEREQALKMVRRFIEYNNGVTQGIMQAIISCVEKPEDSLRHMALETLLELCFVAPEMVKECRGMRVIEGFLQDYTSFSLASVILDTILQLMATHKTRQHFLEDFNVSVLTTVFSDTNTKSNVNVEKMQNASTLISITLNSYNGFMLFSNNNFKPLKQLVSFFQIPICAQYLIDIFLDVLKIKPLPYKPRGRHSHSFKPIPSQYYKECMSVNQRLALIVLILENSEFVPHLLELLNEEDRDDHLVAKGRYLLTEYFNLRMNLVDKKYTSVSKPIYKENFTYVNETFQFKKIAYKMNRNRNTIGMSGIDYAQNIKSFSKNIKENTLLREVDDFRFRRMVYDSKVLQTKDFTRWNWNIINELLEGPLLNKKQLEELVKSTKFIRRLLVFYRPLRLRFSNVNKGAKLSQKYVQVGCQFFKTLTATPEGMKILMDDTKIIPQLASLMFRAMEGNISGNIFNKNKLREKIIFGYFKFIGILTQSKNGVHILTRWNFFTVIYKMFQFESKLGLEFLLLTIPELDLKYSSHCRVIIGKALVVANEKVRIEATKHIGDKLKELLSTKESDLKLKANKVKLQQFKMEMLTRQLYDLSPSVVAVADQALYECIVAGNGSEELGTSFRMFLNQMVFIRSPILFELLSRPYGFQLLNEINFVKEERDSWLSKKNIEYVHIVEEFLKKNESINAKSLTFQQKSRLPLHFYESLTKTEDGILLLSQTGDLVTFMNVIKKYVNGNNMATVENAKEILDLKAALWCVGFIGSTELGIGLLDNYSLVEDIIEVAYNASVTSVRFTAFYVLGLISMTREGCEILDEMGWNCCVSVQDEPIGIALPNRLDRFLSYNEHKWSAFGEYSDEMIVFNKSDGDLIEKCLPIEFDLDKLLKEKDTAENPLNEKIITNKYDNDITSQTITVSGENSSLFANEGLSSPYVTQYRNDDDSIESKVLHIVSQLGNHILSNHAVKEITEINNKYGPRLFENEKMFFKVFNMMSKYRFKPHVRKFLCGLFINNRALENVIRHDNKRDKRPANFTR

Avo1 = molecular target: T3, Avo1 (S. cerevisiae, UniProt Q08236 1-1176); settings: both partners purified
T3 construct: Avo1 of S. cerevisiae (ortholog of hSin1); CRIM domain (residues 647-792 in the model; aa 638-786 in the methods), PH domain (aa 1076-1176); Poorly resolved in the map; only a homology model of the CRIM domain was fitted at a low contour level; source: endogenous, S. cerevisiae cell extract (Bit61-TAP strain lacking Bit2); purified as part of TORC2 on IgG-coated dynabeads, released with TEV …
T3 sequence (looked up): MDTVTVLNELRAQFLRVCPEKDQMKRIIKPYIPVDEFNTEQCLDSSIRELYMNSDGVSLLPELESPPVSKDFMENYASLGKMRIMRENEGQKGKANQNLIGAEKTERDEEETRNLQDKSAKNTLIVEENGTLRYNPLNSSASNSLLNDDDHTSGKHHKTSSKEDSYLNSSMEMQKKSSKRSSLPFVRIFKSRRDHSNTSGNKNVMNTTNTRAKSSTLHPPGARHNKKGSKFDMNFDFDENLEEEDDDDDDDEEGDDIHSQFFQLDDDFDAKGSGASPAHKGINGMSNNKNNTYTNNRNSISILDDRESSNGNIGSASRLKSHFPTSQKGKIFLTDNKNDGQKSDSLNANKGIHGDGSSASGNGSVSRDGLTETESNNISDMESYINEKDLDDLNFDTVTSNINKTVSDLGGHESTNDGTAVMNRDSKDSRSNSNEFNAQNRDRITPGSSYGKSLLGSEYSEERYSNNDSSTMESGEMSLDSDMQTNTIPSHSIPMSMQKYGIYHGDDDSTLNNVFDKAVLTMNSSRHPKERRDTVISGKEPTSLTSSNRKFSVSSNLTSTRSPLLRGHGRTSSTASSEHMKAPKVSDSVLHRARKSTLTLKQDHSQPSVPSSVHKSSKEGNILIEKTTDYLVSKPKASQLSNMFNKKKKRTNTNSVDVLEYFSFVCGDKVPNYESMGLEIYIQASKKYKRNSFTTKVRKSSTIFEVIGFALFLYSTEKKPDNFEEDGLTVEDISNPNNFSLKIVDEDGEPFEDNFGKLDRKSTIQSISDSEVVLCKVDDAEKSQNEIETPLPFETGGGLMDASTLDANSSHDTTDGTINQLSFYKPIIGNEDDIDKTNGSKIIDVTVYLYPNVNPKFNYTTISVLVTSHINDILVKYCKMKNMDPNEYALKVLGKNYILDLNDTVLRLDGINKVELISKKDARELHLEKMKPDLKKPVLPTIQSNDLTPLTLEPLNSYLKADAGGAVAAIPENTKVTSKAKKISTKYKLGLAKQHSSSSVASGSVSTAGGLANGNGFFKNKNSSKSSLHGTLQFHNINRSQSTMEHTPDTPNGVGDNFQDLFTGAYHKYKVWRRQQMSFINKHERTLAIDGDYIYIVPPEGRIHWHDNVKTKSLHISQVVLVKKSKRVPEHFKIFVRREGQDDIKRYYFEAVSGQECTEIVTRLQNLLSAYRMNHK

Bit61-TAP = molecular target: B1; settings: both partners purified

T1 sequence (P32600 whole entry, the tested form may be a part): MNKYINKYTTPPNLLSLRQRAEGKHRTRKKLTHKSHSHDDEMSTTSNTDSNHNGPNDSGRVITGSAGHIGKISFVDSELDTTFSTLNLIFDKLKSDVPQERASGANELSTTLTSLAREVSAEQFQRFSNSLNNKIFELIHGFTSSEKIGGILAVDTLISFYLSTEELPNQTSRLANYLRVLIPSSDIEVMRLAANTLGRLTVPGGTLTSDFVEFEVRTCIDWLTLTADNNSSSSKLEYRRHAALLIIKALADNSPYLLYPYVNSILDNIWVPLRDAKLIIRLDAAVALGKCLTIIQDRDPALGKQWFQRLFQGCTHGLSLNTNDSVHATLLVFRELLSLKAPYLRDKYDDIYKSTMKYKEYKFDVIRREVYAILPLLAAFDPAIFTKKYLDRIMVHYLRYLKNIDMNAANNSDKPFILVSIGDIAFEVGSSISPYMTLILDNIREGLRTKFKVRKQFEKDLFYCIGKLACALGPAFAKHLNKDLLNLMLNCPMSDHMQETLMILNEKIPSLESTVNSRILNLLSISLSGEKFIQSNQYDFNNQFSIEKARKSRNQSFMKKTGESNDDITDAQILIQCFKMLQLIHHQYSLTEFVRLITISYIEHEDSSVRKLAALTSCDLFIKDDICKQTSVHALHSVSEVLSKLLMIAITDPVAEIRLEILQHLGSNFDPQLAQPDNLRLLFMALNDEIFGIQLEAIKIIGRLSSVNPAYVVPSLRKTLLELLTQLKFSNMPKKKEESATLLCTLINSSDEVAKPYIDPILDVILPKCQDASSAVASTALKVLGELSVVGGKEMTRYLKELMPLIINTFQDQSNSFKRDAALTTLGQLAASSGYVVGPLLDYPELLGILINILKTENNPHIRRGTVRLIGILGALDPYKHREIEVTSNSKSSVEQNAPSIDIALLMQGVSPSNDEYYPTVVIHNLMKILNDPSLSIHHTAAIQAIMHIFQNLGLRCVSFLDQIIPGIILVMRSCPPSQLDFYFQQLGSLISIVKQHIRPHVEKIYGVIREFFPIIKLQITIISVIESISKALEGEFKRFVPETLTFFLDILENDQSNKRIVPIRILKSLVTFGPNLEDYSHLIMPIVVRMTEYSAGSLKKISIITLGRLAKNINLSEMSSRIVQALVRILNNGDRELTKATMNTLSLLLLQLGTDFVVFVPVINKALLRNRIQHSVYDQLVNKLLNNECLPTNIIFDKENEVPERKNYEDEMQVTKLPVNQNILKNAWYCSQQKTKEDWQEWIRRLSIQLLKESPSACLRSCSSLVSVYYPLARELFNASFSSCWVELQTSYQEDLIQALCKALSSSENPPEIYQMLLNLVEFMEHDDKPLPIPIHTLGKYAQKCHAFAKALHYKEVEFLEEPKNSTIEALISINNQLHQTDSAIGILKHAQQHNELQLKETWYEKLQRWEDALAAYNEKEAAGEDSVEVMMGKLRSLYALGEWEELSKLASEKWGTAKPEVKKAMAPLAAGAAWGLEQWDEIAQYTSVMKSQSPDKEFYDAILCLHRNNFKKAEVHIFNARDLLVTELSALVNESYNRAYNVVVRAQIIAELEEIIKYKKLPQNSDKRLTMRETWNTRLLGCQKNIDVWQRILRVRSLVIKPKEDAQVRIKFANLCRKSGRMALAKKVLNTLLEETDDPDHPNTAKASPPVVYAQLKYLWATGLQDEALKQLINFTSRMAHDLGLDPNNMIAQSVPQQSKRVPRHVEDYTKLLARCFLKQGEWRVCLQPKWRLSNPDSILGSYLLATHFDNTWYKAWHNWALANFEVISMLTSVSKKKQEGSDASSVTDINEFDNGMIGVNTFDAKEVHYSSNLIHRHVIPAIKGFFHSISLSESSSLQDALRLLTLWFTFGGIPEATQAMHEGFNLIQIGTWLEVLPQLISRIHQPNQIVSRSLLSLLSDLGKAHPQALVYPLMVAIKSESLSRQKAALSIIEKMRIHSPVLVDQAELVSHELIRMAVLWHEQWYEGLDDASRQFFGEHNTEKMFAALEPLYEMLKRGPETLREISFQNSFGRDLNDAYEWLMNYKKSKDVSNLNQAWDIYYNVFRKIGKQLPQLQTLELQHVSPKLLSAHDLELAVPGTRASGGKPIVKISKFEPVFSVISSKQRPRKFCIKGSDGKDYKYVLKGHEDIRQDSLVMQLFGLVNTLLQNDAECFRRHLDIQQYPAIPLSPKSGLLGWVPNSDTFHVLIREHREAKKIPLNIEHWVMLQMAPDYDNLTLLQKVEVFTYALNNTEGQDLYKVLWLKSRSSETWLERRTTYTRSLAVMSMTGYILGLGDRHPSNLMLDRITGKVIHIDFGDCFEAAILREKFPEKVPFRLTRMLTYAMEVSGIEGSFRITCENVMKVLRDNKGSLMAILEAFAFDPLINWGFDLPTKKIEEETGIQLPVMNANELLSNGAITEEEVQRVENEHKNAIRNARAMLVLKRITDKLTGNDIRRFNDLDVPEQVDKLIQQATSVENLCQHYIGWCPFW

Molecule | stoichiometry N (Tor2 (S. cerevisiae)) | binding result (Tor2) | binding result (Avo3) | binding result (Avo1) | binding result (Bit61-TAP)
Tor2, P32600 1-2474 | 2 |  |  |  | 
B1 |  | binds | binds | binds | 
Avo2 (natural protein, S. cerevisiae, UniProt Q04749 1-426, looked up, Avo2 of S. cerevisiae; N-terminal five ankyrin repeats (residues 4-171; modelled aa 4-163); Only the ankyrin repeats are modelled in the map; source: endogenous, S. cerevisiae cell extract (Bit61-TAP strain lacking Bit2); purified as part of TORC2 on IgG-coated dynabeads, released with TEV protease) MLKEPSVRLREAIIEGNLLIVKRLLRRNPDLLTNIDSENGWSSLHYASYHGRYLICVYLIQLGHDKHELIKTFKGNTCVHLALMKGHEQTLHLLLQQFPRFINHRGENGRAPIHIACMNDYYQCLSLLIGVGADLWVMDTNGDTPLHVCLEYGSISCMKMLLNEGEVSLDDNVRDKGNWKPIDVAQTFEVGNIYSKVLKEVKKKGPPLGAGKKPSSFRTPILNAKATFEDGPSPVLSMNSPYSLYSNNSPLPVLPRRISTHTTSGNGGNRRSSITNPVFNPRKPTLSTDSFSSSSNSSSRLRVNSINVKTPVGVSPKKELVSESVRHSATPTSPHNNIALINRYLLPNKSNDNVRGDSQTATINDDGGGGNGGDATIGMGLRKDPDDENENKYKIKVNNGEPRRRVSLLNIPISKLRNSNNTRAED |  | binds |  |  | binds
Lst8 (natural protein, S. cerevisiae, UniProt P41318 1-303, looked up, Lst8 of S. cerevisiae, composed entirely of WD40 repeats (beta propeller); Two copies stand in the TORC2 complex; source: endogenous, S. cerevisiae cell extract (Bit61-TAP strain lacking Bit2); purified as part of TORC2 on IgG-coated dynabeads, released with TEV protease) MSVILVSAGYDHTIRFWEALTGVCSRTIQHSDSQVNRLEITNDKKLLATAGHQNVRLYDIRTTNPNPVASFEGHRGNVTSVSFQQDNRWMVTSSEDGTIKVWDVRSPSIPRNYKHNAPVNEVVIHPNQGELISCDRDGNIRIWDLGENQCTHQLTPEDDTSLQSLSMASDGSMLAAANTKGNCYVWEMPNHTDASHLKPVTKFRAHSTYITRILLSSDVKHLATCSADHTARVWSIDDDFKLETTLDGHQRWVWDCAFSADSAYLVTASSDHYVRLWDLSTREIVRQYGGHHKGAVCVALNDV |  | binds |  | binds | binds
